Experimental data as given in PMC2573054.

Molecular target: His-Rac2 (hexahistidine-tagged Rac2^G12V, aa 2-177) (human) (UniProt P15153)
Experiment: SPR

- Kd: 6 µM
- kon: 385 M⁻¹ s⁻¹
Substance: PLCβ2 (PH-C2) (domain or fragment)
